Test results: paper PMC10929192 (2024)

Molecular target: human PKM2 Ag (M2 splice isoform of pyruvate kinase), purified (human, UniProt P14618 1-531)
Assay: SPR

Sequence of human PKM2 Ag (M2 splice isoform of pyruvate kinase), purified (P14618 whole entry, canonical isoform): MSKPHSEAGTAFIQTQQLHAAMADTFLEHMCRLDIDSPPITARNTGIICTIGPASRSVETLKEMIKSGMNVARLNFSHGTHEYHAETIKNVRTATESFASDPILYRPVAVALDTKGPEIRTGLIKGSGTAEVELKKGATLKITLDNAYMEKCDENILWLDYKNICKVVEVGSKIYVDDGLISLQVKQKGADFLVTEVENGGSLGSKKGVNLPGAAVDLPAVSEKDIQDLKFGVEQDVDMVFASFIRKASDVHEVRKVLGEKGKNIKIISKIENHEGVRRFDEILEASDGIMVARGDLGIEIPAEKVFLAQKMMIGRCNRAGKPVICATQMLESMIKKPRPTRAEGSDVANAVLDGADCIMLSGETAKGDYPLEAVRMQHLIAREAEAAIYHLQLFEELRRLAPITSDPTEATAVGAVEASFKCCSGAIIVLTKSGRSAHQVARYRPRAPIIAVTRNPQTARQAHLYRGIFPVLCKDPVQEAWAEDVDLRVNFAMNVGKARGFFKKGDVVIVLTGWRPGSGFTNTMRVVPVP

| Binder | Kd [nM] |
| --- | --- |
| human full-length H103 Ab (anti-PKM2 antibody, IgG1) (antibody, V domains shown) VH: QVQLQESGPGLVRPSGTLSLICAVSGDSISSSIWWSWVRQSPGKGLEWIGYIYHNGNTYYNPSLESRVTISVDTSENQFSLKLSSVTAADTAVYYCARGYDSSGYYWTDDRYYFDYWGQGTLVTVSS VL: NFMLTQPHSVSESPGKTVTISCTGSSGSIASNYVQWYQQRPGSAPTTVIYEDNQRPPGVPDRFSGSIDSSSNSASLTISALETEDEADYYCQSYDSRNIDVVFGGGTKVTVL | 0.228 |
| Na2S2O4-cleaved HAP103 Ab (act-HAP103) (antibody, V domains shown) VH: QVQLQESGPGLVRPSGTLSLICAVSGDSISSSIWWSWVRQSPGKGLEWIGYIYHNGNTYYNPSLESRVTISVDTSENQFSLKLSSVTAADTAVYYCARGYDSSGYYWTDDRYYFDYWGQGTLVTVSS VL: NFMLTQPHSVSESPGKTVTISCTGSSGSIASNYVQWYQQRPGSAPTTVIYEDNQRPPGVPDRFSGSIDSSSNSASLTISALETEDEADYYCQSYDSRNIDVVFGGGTKVTVL | 0.632 |
